Measurements taken from paper doi:10.1101/2024.08.08.607148 (bioRxiv, 2024).

B1: variable region of RIFIN#1 (PF3D7_1254800, 165-274 aa) (domain or fragment, P. falciparum, UniProt Q8I4N9 165-274, looked up)
chain: NYETINAFIAKTIEELEGIPGITKLFGAKISQFVTPAVFRKPMSLVETILSEKKKLCLCAANKNELLCRGMNPNVPETLPKKIEVAVNEVLSSVNDTWATATTPTTFFTN
B2: D1D2.v-IgG (LILRB1 D1D2.v-containing antibody on the MDB1 scaffold) (antibody, V domains shown)
VH: QITLKESGPTLVERTQTLTLTCTFSGFSLTTDGLGVGWIRQPPGKALEWLALIYYDDVRRYRPSLKSRLTITKDTSKNRVVLTVTDMDPVDAGTYFCVHASLFNLGSRNVYFRYWGQGTLVSVSS
VL: SYDLTQPPSVSVSPGQTARITCSGDSLARQFASWYQQKPGQSPVLLIYKNIERLSAIPERFSGSTSGTSVTLTISGVQAEDEADYFCQSADDSGSYSLFGTGTRVSVL

Columns and labels:
Assay in all cases: ELISA
[1] = biological target: extracellular domain (ECD) of human LILRB1 (human, UniProt Q8NHL6 24-461, biotin (NHS-pEG12-biotin) in the competition ELISA)
Chain of extracellular domain (ECD) of human LILRB1 (Q8NHL6 24-461): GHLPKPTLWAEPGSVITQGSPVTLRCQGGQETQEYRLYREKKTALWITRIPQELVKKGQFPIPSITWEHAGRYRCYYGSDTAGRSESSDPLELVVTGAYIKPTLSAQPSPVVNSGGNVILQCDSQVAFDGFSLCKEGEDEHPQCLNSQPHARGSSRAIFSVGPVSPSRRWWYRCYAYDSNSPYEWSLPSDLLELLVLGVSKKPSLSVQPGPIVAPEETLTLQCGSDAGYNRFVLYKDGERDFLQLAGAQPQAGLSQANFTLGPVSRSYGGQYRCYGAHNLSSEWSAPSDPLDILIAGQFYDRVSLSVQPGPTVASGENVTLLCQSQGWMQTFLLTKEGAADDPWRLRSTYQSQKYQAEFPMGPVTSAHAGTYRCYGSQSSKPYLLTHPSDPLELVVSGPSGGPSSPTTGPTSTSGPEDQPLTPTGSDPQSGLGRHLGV

[2] = biological target: T1, variable region of RIFIN#1 (PF3D7_1254800, 165-274 aa) (P. falciparum, UniProt Q8I4N9)
[3] = biological target: T1, variable region of RIFIN#1 …; remark: listed apart in the source

Binder	Kd [1]	Kd [2]	IC50 [3]
B1	~650 nM		
B2		6 nM	20 nM
